In patent publication US11833164B2, “Methods of treating Fabry disease in patients having a mutation in the GLA gene” (Amicus Therapeutics, Inc., priority 2019, dated 2023):

Tested on: mutant form of α-Gal A expressed in HEK-293 cells
Test: HEK assay (GLP HEK / Migalastat Amenability Assay): α-Gal A activity in lysates of transiently transfected HEK-293 cells incubated with or without 10 μM migalastat
Format: cell-based, human
Conditions: for Absolute increase (% WT): 10 μM migalastat versus baseline; for Relative increase: 10 μM migalastat α-Gal A activity relative to baseline; for 10 μM migalastat α-Gal A activity (% WT): 5 days; for 10 μM migalastat α-Gal A activity (% WT) / Baseline α-Gal A activity (% WT): percentage of baseline wild-type α-Gal A activity; for 10 μM migalastat α-Gal A activity (% WT) / Baseline α-Gal A activity (% WT) / Baseline α-Gal A activity / 10 μM migalastat α-Gal A activity: mean ± SEM; for Baseline α-Gal A activity / 10 μM migalastat α-Gal A activity: lysates of HEK-293 cells transfected with the mutant form; for Baseline α-Gal A activity: incubated 5 days in the absence of migalastat; for 10 μM migalastat α-Gal A activity: incubated 5 days with 10 μM migalastat
Protocol: Such mutations or variants are also referred to herein as “HEK assay amenable” mutations or variants.
The α-Gal A activity is expressed as the nmoles of free 4-MU released per milligram of protein per hour (nmol/mg/hr).
In Table 7, values for the mean±standard error of the mean (SEM) were calculated. nmol/mg/hr indicates “nmoles of free 4-MU released per mg of protein per hour”. WT indicates “wild-type”. NC indicates “not calculable”. N/A indicates “not applicable”.

| Molecule | Absolute increase (% WT) | Relative increase | 10 μM migalastat α-Gal A activity (% WT) | Baseline α-Gal A activity (% WT) (absence of migalastat) | Baseline α-Gal A activity | 10 μM migalastat α-Gal A activity | Baseline α-Gal A activity (nmol/mg/hr) (absence of migalastat, mean activity below the limit of detection (<142 nmol/mg/hr)) |
| --- | --- | --- | --- | --- | --- | --- | --- |
| D109H (protein) MQLRNPELHLGCALALRFLALVSWDIPGARALDNGLARTPTMGWLHWERFMCNLDCQEEPDSCISEKLFMEMAELMVSEGWKDAGYEYLCIDDCWMAPQRDSEGRLQAHPQRFPHGIRQLANYVHSKGLKLGIYADVGNKTCAGFPGSFGYYDIDAQTFADWGVDLLKFDGCYCDSLENLADGYKHMSLALNRTGRSIVYSCEWPLYMWPFQKPNYTEIRQYCNHWRNFADIDDSWKSIKSILDWTSFNQERIVDVAGPGGWNDPDMLVIGNFGLSWNQQVTQMALWAIMAAPLFMSNDLRHISPQAKALLQDKDVIAINQDPLGKQGYQLRQGDNFEVWERPLSGLAWAVAMINRQEIGGPRSYTIAVASLGKGVACNPACFITQLLPVKRKLGFYEWTSRLRSHINPTGTVLLQLENTMQMSLKDLL | 30.0 % WT | 2.2 | 54.6 ± 3.5 % WT | 24.6 ± 1.7 % WT | 7540 ± 684 nmol/mg/h | 16483 ± 1317 nmol/mg/h | – |
| P110T (protein) MQLRNPELHLGCALALRFLALVSWDIPGARALDNGLARTPTMGWLHWERFMCNLDCQEEPDSCISEKLFMEMAELMVSEGWKDAGYEYLCIDDCWMAPQRDSEGRLQADTQRFPHGIRQLANYVHSKGLKLGIYADVGNKTCAGFPGSFGYYDIDAQTFADWGVDLLKFDGCYCDSLENLADGYKHMSLALNRTGRSIVYSCEWPLYMWPFQKPNYTEIRQYCNHWRNFADIDDSWKSIKSILDWTSFNQERIVDVAGPGGWNDPDMLVIGNFGLSWNQQVTQMALWAIMAAPLFMSNDLRHISPQAKALLQDKDVIAINQDPLGKQGYQLRQGDNFEVWERPLSGLAWAVAMINRQEIGGPRSYTIAVASLGKGVACNPACFITQLLPVKRKLGFYEWTSRLRSHINPTGTVLLQLENTMQMSLKDLL | 18.6 % WT | 1.3 | 81.2 ± 6.5 % WT | 62.6 ± 5.9 % WT | 20474 ± 1528 nmol/mg/h | 26745 ± 1678 nmol/mg/h | – |
| P114L (protein) MQLRNPELHLGCALALRFLALVSWDIPGARALDNGLARTPTMGWLHWERFMCNLDCQEEPDSCISEKLFMEMAELMVSEGWKDAGYEYLCIDDCWMAPQRDSEGRLQADPQRFLHGIRQLANYVHSKGLKLGIYADVGNKTCAGFPGSFGYYDIDAQTFADWGVDLLKFDGCYCDSLENLADGYKHMSLALNRTGRSIVYSCEWPLYMWPFQKPNYTEIRQYCNHWRNFADIDDSWKSIKSILDWTSFNQERIVDVAGPGGWNDPDMLVIGNFGLSWNQQVTQMALWAIMAAPLFMSNDLRHISPQAKALLQDKDVIAINQDPLGKQGYQLRQGDNFEVWERPLSGLAWAVAMINRQEIGGPRSYTIAVASLGKGVACNPACFITQLLPVKRKLGFYEWTSRLRSHINPTGTVLLQLENTMQMSLKDLL | 5.4 % WT | 1.3 | 23.7 ± 1.3 % WT | 18.3 ± 2.1 % WT | 6229 ± 901 nmol/mg/h | 7973 ± 626 nmol/mg/h | – |
| D109Y (protein) MQLRNPELHLGCALALRFLALVSWDIPGARALDNGLARTPTMGWLHWERFMCNLDCQEEPDSCISEKLFMEMAELMVSEGWKDAGYEYLCIDDCWMAPQRDSEGRLQAYPQRFPHGIRQLANYVHSKGLKLGIYADVGNKTCAGFPGSFGYYDIDAQTFADWGVDLLKFDGCYCDSLENLADGYKHMSLALNRTGRSIVYSCEWPLYMWPFQKPNYTEIRQYCNHWRNFADIDDSWKSIKSILDWTSFNQERIVDVAGPGGWNDPDMLVIGNFGLSWNQQVTQMALWAIMAAPLFMSNDLRHISPQAKALLQDKDVIAINQDPLGKQGYQLRQGDNFEVWERPLSGLAWAVAMINRQEIGGPRSYTIAVASLGKGVACNPACFITQLLPVKRKLGFYEWTSRLRSHINPTGTVLLQLENTMQMSLKDLL | 7.5 % WT | 11.9 | 8.2 ± 1.1 % WT | 0.7 ± 0.1 % WT | 212 ± 30 nmol/mg/h | 2530 ± 415 nmol/mg/h | – |
| F113V (protein) MQLRNPELHLGCALALRFLALVSWDIPGARALDNGLARTPTMGWLHWERFMCNLDCQEEPDSCISEKLFMEMAELMVSEGWKDAGYEYLCIDDCWMAPQRDSEGRLQADPQRVPHGIRQLANYVHSKGLKLGIYADVGNKTCAGFPGSFGYYDIDAQTFADWGVDLLKFDGCYCDSLENLADGYKHMSLALNRTGRSIVYSCEWPLYMWPFQKPNYTEIRQYCNHWRNFADIDDSWKSIKSILDWTSFNQERIVDVAGPGGWNDPDMLVIGNFGLSWNQQVTQMALWAIMAAPLFMSNDLRHISPQAKALLQDKDVIAINQDPLGKQGYQLRQGDNFEVWERPLSGLAWAVAMINRQEIGGPRSYTIAVASLGKGVACNPACFITQLLPVKRKLGFYEWTSRLRSHINPTGTVLLQLENTMQMSLKDLL | 9.2 % WT | 10.6 | 10.3 ± 1 % WT | 1.1 ± 0.1 % WT | 341 ± 41 nmol/mg/h | 3614 ± 596 nmol/mg/h | – |
| F113Y (protein) MQLRNPELHLGCALALRFLALVSWDIPGARALDNGLARTPTMGWLHWERFMCNLDCQEEPDSCISEKLFMEMAELMVSEGWKDAGYEYLCIDDCWMAPQRDSEGRLQADPQRYPHGIRQLANYVHSKGLKLGIYADVGNKTCAGFPGSFGYYDIDAQTFADWGVDLLKFDGCYCDSLENLADGYKHMSLALNRTGRSIVYSCEWPLYMWPFQKPNYTEIRQYCNHWRNFADIDDSWKSIKSILDWTSFNQERIVDVAGPGGWNDPDMLVIGNFGLSWNQQVTQMALWAIMAAPLFMSNDLRHISPQAKALLQDKDVIAINQDPLGKQGYQLRQGDNFEVWERPLSGLAWAVAMINRQEIGGPRSYTIAVASLGKGVACNPACFITQLLPVKRKLGFYEWTSRLRSHINPTGTVLLQLENTMQMSLKDLL | 4.4 % WT | – | 4.4 ± 0.3 % WT | – | – | 1328 ± 79 nmol/mg/h | BLD (“BLD” indicates that the mean α-Gal A activity was below the limit of detection (<142 nmol/mg/hr)) |
| D109N (protein) MQLRNPELHLGCALALRFLALVSWDIPGARALDNGLARTPTMGWLHWERFMCNLDCQEEPDSCISEKLFMEMAELMVSEGWKDAGYEYLCIDDCWMAPQRDSEGRLQANPQRFPHGIRQLANYVHSKGLKLGIYADVGNKTCAGFPGSFGYYDIDAQTFADWGVDLLKFDGCYCDSLENLADGYKHMSLALNRTGRSIVYSCEWPLYMWPFQKPNYTEIRQYCNHWRNFADIDDSWKSIKSILDWTSFNQERIVDVAGPGGWNDPDMLVIGNFGLSWNQQVTQMALWAIMAAPLFMSNDLRHISPQAKALLQDKDVIAINQDPLGKQGYQLRQGDNFEVWERPLSGLAWAVAMINRQEIGGPRSYTIAVASLGKGVACNPACFITQLLPVKRKLGFYEWTSRLRSHINPTGTVLLQLENTMQMSLKDLL | 36.5 % WT | 8.4 | 41.5 ± 2.8 % WT | 5 ± 0.3 % WT | 1475 ± 83 nmol/mg/h | 12358 ± 973 nmol/mg/h | – |
| H115N (protein) MQLRNPELHLGCALALRFLALVSWDIPGARALDNGLARTPTMGWLHWERFMCNLDCQEEPDSCISEKLFMEMAELMVSEGWKDAGYEYLCIDDCWMAPQRDSEGRLQADPQRFPNGIRQLANYVHSKGLKLGIYADVGNKTCAGFPGSFGYYDIDAQTFADWGVDLLKFDGCYCDSLENLADGYKHMSLALNRTGRSIVYSCEWPLYMWPFQKPNYTEIRQYCNHWRNFADIDDSWKSIKSILDWTSFNQERIVDVAGPGGWNDPDMLVIGNFGLSWNQQVTQMALWAIMAAPLFMSNDLRHISPQAKALLQDKDVIAINQDPLGKQGYQLRQGDNFEVWERPLSGLAWAVAMINRQEIGGPRSYTIAVASLGKGVACNPACFITQLLPVKRKLGFYEWTSRLRSHINPTGTVLLQLENTMQMSLKDLL | 30.1 % WT | 1.7 | 75 ± 2.5 % WT | 44.9 ± 2.5 % WT | 13745 ± 890 nmol/mg/h | 23018 ± 1098 nmol/mg/h | – |
| H115D (protein) MQLRNPELHLGCALALRFLALVSWDIPGARALDNGLARTPTMGWLHWERFMCNLDCQEEPDSCISEKLFMEMAELMVSEGWKDAGYEYLCIDDCWMAPQRDSEGRLQADPQRFPDGIRQLANYVHSKGLKLGIYADVGNKTCAGFPGSFGYYDIDAQTFADWGVDLLKFDGCYCDSLENLADGYKHMSLALNRTGRSIVYSCEWPLYMWPFQKPNYTEIRQYCNHWRNFADIDDSWKSIKSILDWTSFNQERIVDVAGPGGWNDPDMLVIGNFGLSWNQQVTQMALWAIMAAPLFMSNDLRHISPQAKALLQDKDVIAINQDPLGKQGYQLRQGDNFEVWERPLSGLAWAVAMINRQEIGGPRSYTIAVASLGKGVACNPACFITQLLPVKRKLGFYEWTSRLRSHINPTGTVLLQLENTMQMSLKDLL | 14.1 % WT | 1.5 | 44.8 ± 3 % WT | 30.7 ± 2.9 % WT | 10284 ± 1141 nmol/mg/h | 15258 ± 1412 nmol/mg/h | – |
